Data reported in paper PMC11818568, “Characterization of Tetrathionate Hydrolase from Acidothermophilic Sulfur-Oxidizing Archaeon Metallosphaera cuprina Ar-4” (International Journal of Molecular Sciences, 2025).

Substrate: O=S(=O)(O)SSS(=O)(=O)O
Test: HPLC discontinuous assay, Michaelis-Menten
Type: biochemical, Metallosphaera cuprina
Details: pH 6.0, 95 °C, 1.15 µg enzyme, K2S4O6 varied

B1: TTHMc (tetrathionate hydrolase, Mcup_1281) (Metallosphaera cuprina Ar-4) (protein)
chain: PSITQIVSQVITPIPQPIVRTYDIYNTTYFPYEVKVTYYPGNATSQNLGLPGSWLVTNGGQSHNAVVDTTCTELIQGVSWQQDFAHMAGAALIPLSAPENMLPGSNVMGTRSALVMLTQMVGEPLGVSLADNLLFVEEDSGPGSIFAVNPLNGQVVWYATGLASYAMNNPIVYNGIVYVTVGDVGFNFANFVHYENGQYSAIHRGMAYGAIYAFNASDGILLWMRFTMGEAMPAPAVYDGILAYSDGGGEFVGVNATTGQTLWMDSIPGLFDSMSSVNYYVMPNGTPLFVAGFTSLTEPFGLLVAVNGITGKMVWNASLPSPNKPFNTGMGDVPPAVDQSLGIVVQSTVANAEPNGTVDTMVLAVNATNGHVLWVTNLGRGYTPPAFKGAVPMIYNNTVFVGAPSLGTEFALNISTGRIIWQTRLNGISLPPTAPGGPRGSATIYDNLLWIAGGPNVYVLNPHNGDLLQQYYVGGRFGIVNPVIAGNTMYLTNSYGWVIAIPLYQVFPLFQYYTNS
notes: native enzyme purified from tetrathionate-grown M. cuprina Ar-4 cells (soluble fraction; DEAE, HIC, size exclusion, Q-Sepharose); no tag; SDS band about 54 kDa; no homodimer observed
For B1, the Km was 0.35 mmol/L.
